Reference: publication PMC5409509, “The mismatch repair and meiotic recombination endonuclease Mlh1-Mlh3 is activated by polymer formation and can cleave DNA substrates in trans”

T1: Mlh1-Mlh3 (Saccharomyces cerevisiae, UniProt P38920;Q12083 1-769;1-715)
T1 sequence 1: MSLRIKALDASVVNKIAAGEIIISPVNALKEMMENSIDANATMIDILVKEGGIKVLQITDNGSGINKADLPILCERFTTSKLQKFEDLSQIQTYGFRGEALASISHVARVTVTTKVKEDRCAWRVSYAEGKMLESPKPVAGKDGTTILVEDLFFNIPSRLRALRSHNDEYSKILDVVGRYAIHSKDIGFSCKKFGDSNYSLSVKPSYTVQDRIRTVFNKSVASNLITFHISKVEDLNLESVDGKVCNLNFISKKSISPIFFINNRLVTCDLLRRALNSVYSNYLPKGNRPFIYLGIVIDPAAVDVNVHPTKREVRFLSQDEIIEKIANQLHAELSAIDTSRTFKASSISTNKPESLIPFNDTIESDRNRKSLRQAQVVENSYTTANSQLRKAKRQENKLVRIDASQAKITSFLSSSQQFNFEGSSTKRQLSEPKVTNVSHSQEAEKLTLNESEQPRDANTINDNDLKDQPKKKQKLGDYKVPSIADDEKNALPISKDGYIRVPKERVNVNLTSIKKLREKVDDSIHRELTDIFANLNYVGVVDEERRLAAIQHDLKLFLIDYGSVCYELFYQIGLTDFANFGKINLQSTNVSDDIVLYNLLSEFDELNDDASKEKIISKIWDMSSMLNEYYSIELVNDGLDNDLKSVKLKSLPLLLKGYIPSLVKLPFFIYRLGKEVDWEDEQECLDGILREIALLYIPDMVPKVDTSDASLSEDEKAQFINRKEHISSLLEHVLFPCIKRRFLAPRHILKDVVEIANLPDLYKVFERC
T1 sequence 2: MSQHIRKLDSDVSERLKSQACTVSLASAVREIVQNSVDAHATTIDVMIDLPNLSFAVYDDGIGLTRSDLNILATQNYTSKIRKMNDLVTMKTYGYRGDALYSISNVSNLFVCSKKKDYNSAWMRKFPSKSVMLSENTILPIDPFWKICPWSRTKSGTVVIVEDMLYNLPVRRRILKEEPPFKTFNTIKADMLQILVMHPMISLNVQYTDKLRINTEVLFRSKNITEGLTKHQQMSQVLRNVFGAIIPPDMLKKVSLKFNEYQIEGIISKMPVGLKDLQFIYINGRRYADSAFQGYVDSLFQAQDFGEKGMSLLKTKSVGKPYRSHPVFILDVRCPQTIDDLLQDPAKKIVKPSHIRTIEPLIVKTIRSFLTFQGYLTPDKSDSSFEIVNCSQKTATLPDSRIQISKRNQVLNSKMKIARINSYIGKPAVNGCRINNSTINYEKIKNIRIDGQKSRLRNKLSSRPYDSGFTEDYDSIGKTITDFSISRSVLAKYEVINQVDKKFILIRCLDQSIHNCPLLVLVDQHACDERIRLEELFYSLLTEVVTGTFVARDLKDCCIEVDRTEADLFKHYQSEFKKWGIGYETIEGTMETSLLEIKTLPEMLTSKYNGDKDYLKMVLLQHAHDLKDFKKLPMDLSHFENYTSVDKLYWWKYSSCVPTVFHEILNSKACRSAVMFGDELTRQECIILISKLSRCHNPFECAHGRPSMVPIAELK

B1: +8 loop oligonucleotide (AO3142/AO3143) (dsDNA)
DNA 1: GGGTCAACGTGGGCAAAGATGTCCTAGCAAGTCAGAATTCGGTAGCGTG
DNA 2: CACGCTACCGAATTCTGACTTGCTAGGTGTGTGTGACATCTTTGCCCACGTTGACCC
B2: Holliday junction X26 (structured_DNA)
DNA 1: GCGCTACCAGTGATCACCAATGGATTGCTAGGACATCTTTGCCCACCTGCAGGTTCACCC
DNA 2: GGGTGAACCTGCAGGTGGGCAAAGATGTCCTAGCAATCCATTGTCTATGACGTCAAGCTC
DNA 3: GAGCTTGACGTCATAGACAATGGATTGCTAGGACATCTTTGCCGTCTTGTCAATATCGGC
DNA 4: GCCGATATTGACAAGACGGCAAAGATGTCCTAGCAATCCATTGGTGATCACTGGTAGCGC

Columns and labels:
Mlh1-Mlh3 [1] = biological target: T1, Mlh1-Mlh3; assay: competition; very strong competitor of plasmid nicking, 0-2000 nM oligo, 1 mM Mg2+; Filter binding: 20 mM Tris-HCl pH 7.5, 0.01 mM EDTA, 2 mM MgCl2, 40 ug/mL BSA, 0.1 mM DTT, 15 uM nucleotide DNA, 10 min at 30 C (20 or 150 mM KCl in Fig 4B; KCl not stated for Fig 4A); conditions: protein: recombinant; copies: 1;1; blunt
Mlh1-Mlh3 [2] = biological target: T1, Mlh1-Mlh3; assay: competition; very strong competitor of plasmid nicking, 0-2000 nM, 1 mM Mg2+; Filter binding: 20 mM Tris-HCl pH 7.5, 0.01 mM EDTA, 2 mM MgCl2, 40 ug/mL BSA, 0.1 mM DTT, 15 uM nucleotide DNA, 10 min at 30 C (20 or 150 mM KCl in Fig 4B; KCl not stated for Fig 4A); conditions: protein: recombinant; copies: 1;1; 4-way junction with 26 bp mobile homologous core

Binder	binding result (Mlh1-Mlh3 [1])	binding result (Mlh1-Mlh3 [2])
B1	binds	
B2		binds
